Biological target: T1, HER2 ectodomain-Fc (96 kDa) (Homo sapiens, UniProt P04626)
T1 construct: human epidermal growth factor receptor 2 (HER2), ectodomain; also called extracellular domain of HER2; human epidermal growth factor receptor 2
Assay: SPR; Biacore T100, 25 °C; HER2 ectodomain-Fc amine-coupled on a CM5 chip at 1270 RU; VHHs injected as analytes at 7 concentrations between 250 and 3.5 nM in 20 mM Hepes, 150 mM NaCl, 3 mM EDTA, 0.005% Tween 20, pH 7.4; 1:1 Langmuir fit
Conditions: both partners purified

B1: VHH A10 (anti-HER2 nanobody) (VHH)
VHH: DVQLQASGGGFVQPGGSLRLSCAASGATSNISNMGWFRQAPGKEREFVSAISRAESRPLYYADSVKGRFTISRDNSKNTVYLQMNSLRAEDTATYYCAYMPLVRHKAYWGQGTQVTVSS
notes: anti-HER2 VHH from a synthetic library with camelid FW2 hallmarks FERF; also called A10 wt; source: expressed in bacteria, purified (IMAC, SEC)
B1: binds.
